Substrate in data set [1]: O=C(O)c1cccc2c1OC(=O)C(C(=O)NCc1ccccc1)C2
Briefly: (§1) Km for TEM-2 beta-lactamase hydrolysis.

Substrate in data set [2]: O=C(O)c1ccc2c(c1)OC(=O)C(C(=O)NCc1ccccc1)C2
Described as §1.

Substrate in data set [3]: O=C(Cc1ccccc1)NC1Cc2ccc(C(=O)O)cc2OC1=O
Described as §1.

Substrate in data set [4]: O=C(Cc1ccccc1)NC1Cc2cccc(C(=O)O)c2OC1=O
The data set is described as §1.

Substrate in data set [5]: O=C(O)c1cccc2c1OC(=O)C(C(=O)NCc1ccccc1)C2
The data set is described as follows: (§2) Km for OXA-1 beta-lactamase hydrolysis.

Substrate in data set [6]: CC(=O)OCC1=C(C(=O)O)N2C(=O)[C@@H](NC(=O)Cc3cccs3)[C@H]2SC1
The description is as §2.

Substrate in data set [7]: O=C(Cc1ccccc1)NC1Cc2cccc(C(=O)O)c2OC1=O
The data set is described as §2.

Substrate in data set [8]: O=C(O)c1cccc2c1OC(=O)C(C(=O)NCc1ccccc1)C2
The data set is described as follows: (§3) Km for Staphylococcus aureus PC1 Beta-lactamase hydrolysis.

Substrate in data set [9]: O=C(O)c1ccc2c(c1)OC(=O)C(C(=O)NCc1ccccc1)C2
Described as §3.

Substrate in data set [10]: CC(=O)OCC1=C(C(=O)O)N2C(=O)[C@@H](NC(=O)Cc3cccs3)[C@H]2SC1
The data set is described as §3.

Substrate in data set [11]: O=C(Cc1ccccc1)NC1Cc2cccc(C(=O)O)c2OC1=O
The data set is described as §3.

Substrate in data set [12]: O=C(O)c1cccc2c1OC(=O)C(C(=O)NCc1ccccc1)C2
The data set is described as follows: (§4) Km for Enterobacter cloacae P99 Beta-lactamase hydrolysis.

Substrate in data set [13]: O=C(O)c1ccc2c(c1)OC(=O)C(C(=O)NCc1ccccc1)C2
The data set is described as §4.

Substrate in data set [14]: O=C(Cc1ccccc1)NC1Cc2ccc(C(=O)O)cc2OC1=O
The description is as §4.

Substrate in data set [15]: CC(=O)OCC1=C(C(=O)O)N2C(=O)[C@@H](NC(=O)Cc3cccs3)[C@H]2SC1
Described as §4.

Substrate in data set [16]: O=C(Cc1ccccc1)NC1Cc2cccc(C(=O)O)c2OC1=O
Described as §4.

Four proteins from ChEMBL document CHEMBL1137898, “Benzopyranones with retro-amide side chains as (inhibitory) beta-lactamase substrates” (Bioorg Med Chem Lett, 2004) can be followed below.

Where only a bound is given, the exact number is not on record here.

B1: Beta-lactamase TEM (Escherichia coli), P62593 (protein)
chain: MSIQHFRVALIPFFAAFCLPVFAHPETLVKVKDAEDQLGARVGYIELDLNSGKILESFRPEERFPMMSTFKVLLCGAVLSRVDAGQEQLGRRIHYSQNDLVEYSPVTEKHLTDGMTVRELCSAAITMSDNTAANLLLTTIGGPKELTAFLHNMGDHVTRLDRWEPELNEAIPNDERDTTMPAAMATTLRKLLTGELLTLASRQQLIDWMEADKVAGPLLRSALPAGWFIADKSGAGERGSRGIIAALGPDGKPSRIVVIYTTGSQATMDERNRQIAEIGASLIKHW
Usually Km stands for the substrate concentration at which the rate is half of its maximum. B1: the Km in data set [1] was 290 µM; in data set [2] it was > 200 µM; in data set [3], > 1200 µM; in data set [4], 50 µM.

B2: Beta-lactamase OXA-1 (Escherichia coli), P13661 (protein)
chain: MKNTIHINFAIFLIIANIIYSSASASTDISTVASPLFEGTEGCFLLYDASTNAEIAQFNKAKCATQMAPDSTFKIALSLMAFDAEIIDQKTIFKWDKTPKGMEIWNSNHTPKTWMQFSVVWVSQEITQKIGLNKIKNYLKDFDYGNQDFSGDKERNNGLTEAWLESSLKISPEEQIQFLRKIINHNLPVKNSAIENTIENMYLQDLDNSTKLYGKTGAGFTANRTLQNGWFEGFIISKSGHKYVFVSALTGNLGSNLTSSIKAKKNAITILNTLNL
As for B2, the Km in data set [5] turned out to be 7.4 µM; in data set [6], 10 µM; in data set [7] it was 13.9 µM.

B3: Beta-lactamase (Staphylococcus aureus), P00807 (protein)
chain: MKKLIFLIVIALVLSACNSNSSHAKELNDLEKKYNAHIGVYALDTKSGKEVKFNSDKRFAYASTSKAINSAILLEQVPYNKLNKKVHINKDDIVAYSPILEKYVGKDITLKALIEASMTYSDNTANNKIIKEIGGIKKVKQRLKELGDKVTNPVRYEIELNYYSPKSKKDTSTPAAFGKTLNKLIANGKLSKENKKFLLDLMLNNKSGDTLIKDGVPKDYKVADKSGQAITYASRNDVAFVYPKGQSEPIVLVIFTNKDNKSDKPNDKLISETAKSVMKEF
Turning to B3, the Km in [8] is 1.8 µM; in data set [9] it was > 200 µM; in [10], 1 µM; in [11] it was 0.3 µM.

B4: Beta-lactamase (Enterobacter cloacae), P05364 (protein)
chain: MMRKSLCCALLLGISCSALATPVSEKQLAEVVANTITPLMKAQSVPGMAVAVIYQGKPHYYTFGKADIAANKPVTPQTLFELGSISKTFTGVLGGDAIARGEISLDDAVTRYWPQLTGKQWQGIRMLDLATYTAGGLPLQVPDEVTDNASLLRFYQNWQPQWKPGTTRLYANASIGLFGALAVKPSGMPYEQAMTTRVLKPLKLDHTWINVPKAEEAHYAWGYRDGKAVRVSPGMLDAQAYGVKTNVQDMANWVMANMAPENVADASLKQGIALAQSRYWRIGSMYQGLGWEMLNWPVEANTVVEGSDSKVALAPLPVAEVNPPAPPVKASWVHKTGSTGGFGSYVAFIPEKQIGIVMLANTSYPNPARVEAAYHILEALQ
Consider B4, for which the Km in [12] is 0.2 µM; in data set [13] it was 430 µM; in [14], 290 µM; in data set [15], 9 µM; in [16], 620 µM.
